Patent publication US20110118447A1

Legend:
[1] = molecular target: binding partner of C5A (XPA23); assay: Biacore
[2] = molecular target: binding partner (antigen) of C5A (XPA23); assay: Biacore, K-off, fold vs original

Row | Binder | fold difference in affinity vs original [1] | fold difference in affinity vs original [2] | fold affinity vs original [1]
1 | C5A (XPA23) VH M57A (antibody, V domains shown) VH: EVQLLESGGGLVQPGGSLRLSCAASGFTFSKYFMFWVRQAPGKGLEWVSVISPSGGATRYADSVKGRFTISRDNSKNTLYLQMNSLRAEDTAVYYCARVGYGGNSDYWGQGTLVTVSS VL: DIQMTQSPSSVSASVGDRLTIICRASQDINRWLAWYQQTPGNAPKLLIHSATSLQSGVPSRFSGSGSGTDFTLTINSLQPEDFATYYCQQADSFPLTFGGGTKVEIK | 0.03 fold | 0.03 fold | –
2 | C5A (XPA23) VH R59W (antibody, V domains shown) VH: EVQLLESGGGLVQPGGSLRLSCAASGFTFSKYFMFWVRQAPGKGLEWVSVISPSGGMTWYADSVKGRFTISRDNSKNTLYLQMNSLRAEDTAVYYCARVGYGGNSDYWGQGTLVTVSS VL: DIQMTQSPSSVSASVGDRLTIICRASQDINRWLAWYQQTPGNAPKLLIHSATSLQSGVPSRFSGSGSGTDFTLTINSLQPEDFATYYCQQADSFPLTFGGGTKVEIK | – | 0.09 fold | 0.09 fold
3 | C5A (XPA23) VH T58G (antibody, V domains shown) VH: EVQLLESGGGLVQPGGSLRLSCAASGFTFSKYFMFWVRQAPGKGLEWVSVISPSGGMGRYADSVKGRFTISRDNSKNTLYLQMNSLRAEDTAVYYCARVGYGGNSDYWGQGTLVTVSS VL: DIQMTQSPSSVSASVGDRLTIICRASQDINRWLAWYQQTPGNAPKLLIHSATSLQSGVPSRFSGSGSGTDFTLTINSLQPEDFATYYCQQADSFPLTFGGGTKVEIK | 0.95 fold | 0.95 fold | –
4 | C5A (XPA23) VH T58W (antibody, V domains shown) VH: EVQLLESGGGLVQPGGSLRLSCAASGFTFSKYFMFWVRQAPGKGLEWVSVISPSGGMWRYADSVKGRFTISRDNSKNTLYLQMNSLRAEDTAVYYCARVGYGGNSDYWGQGTLVTVSS VL: DIQMTQSPSSVSASVGDRLTIICRASQDINRWLAWYQQTPGNAPKLLIHSATSLQSGVPSRFSGSGSGTDFTLTINSLQPEDFATYYCQQADSFPLTFGGGTKVEIK | – | 0.93 fold | 0.93 fold
5 | C5A (XPA23) VH R59G (antibody, V domains shown) VH: EVQLLESGGGLVQPGGSLRLSCAASGFTFSKYFMFWVRQAPGKGLEWVSVISPSGGMTGYADSVKGRFTISRDNSKNTLYLQMNSLRAEDTAVYYCARVGYGGNSDYWGQGTLVTVSS VL: DIQMTQSPSSVSASVGDRLTIICRASQDINRWLAWYQQTPGNAPKLLIHSATSLQSGVPSRFSGSGSGTDFTLTINSLQPEDFATYYCQQADSFPLTFGGGTKVEIK | 1.04 fold | 1.04 fold | –
6 | C5A (XPA23) VH T58A (antibody, V domains shown) VH: EVQLLESGGGLVQPGGSLRLSCAASGFTFSKYFMFWVRQAPGKGLEWVSVISPSGGMARYADSVKGRFTISRDNSKNTLYLQMNSLRAEDTAVYYCARVGYGGNSDYWGQGTLVTVSS VL: DIQMTQSPSSVSASVGDRLTIICRASQDINRWLAWYQQTPGNAPKLLIHSATSLQSGVPSRFSGSGSGTDFTLTINSLQPEDFATYYCQQADSFPLTFGGGTKVEIK | 0.14 fold | 0.14 fold | –
7 | C5A (XPA23) VH R59F (antibody, V domains shown) VH: EVQLLESGGGLVQPGGSLRLSCAASGFTFSKYFMFWVRQAPGKGLEWVSVISPSGGMTFYADSVKGRFTISRDNSKNTLYLQMNSLRAEDTAVYYCARVGYGGNSDYWGQGTLVTVSS VL: DIQMTQSPSSVSASVGDRLTIICRASQDINRWLAWYQQTPGNAPKLLIHSATSLQSGVPSRFSGSGSGTDFTLTINSLQPEDFATYYCQQADSFPLTFGGGTKVEIK | – | 0.92 fold | 0.92 fold
8 | C5A (XPA23) VH T58V (antibody, V domains shown) VH: EVQLLESGGGLVQPGGSLRLSCAASGFTFSKYFMFWVRQAPGKGLEWVSVISPSGGMVRYADSVKGRFTISRDNSKNTLYLQMNSLRAEDTAVYYCARVGYGGNSDYWGQGTLVTVSS VL: DIQMTQSPSSVSASVGDRLTIICRASQDINRWLAWYQQTPGNAPKLLIHSATSLQSGVPSRFSGSGSGTDFTLTINSLQPEDFATYYCQQADSFPLTFGGGTKVEIK | 0.99 fold | 0.99 fold | –
9 | C5A (XPA23) VH R59P (antibody, V domains shown) VH: EVQLLESGGGLVQPGGSLRLSCAASGFTFSKYFMFWVRQAPGKGLEWVSVISPSGGMTPYADSVKGRFTISRDNSKNTLYLQMNSLRAEDTAVYYCARVGYGGNSDYWGQGTLVTVSS VL: DIQMTQSPSSVSASVGDRLTIICRASQDINRWLAWYQQTPGNAPKLLIHSATSLQSGVPSRFSGSGSGTDFTLTINSLQPEDFATYYCQQADSFPLTFGGGTKVEIK | 0.07 fold | 0.07 fold | –
10 | C5A (XPA23) VH T58F (antibody, V domains shown) VH: EVQLLESGGGLVQPGGSLRLSCAASGFTFSKYFMFWVRQAPGKGLEWVSVISPSGGMFRYADSVKGRFTISRDNSKNTLYLQMNSLRAEDTAVYYCARVGYGGNSDYWGQGTLVTVSS VL: DIQMTQSPSSVSASVGDRLTIICRASQDINRWLAWYQQTPGNAPKLLIHSATSLQSGVPSRFSGSGSGTDFTLTINSLQPEDFATYYCQQADSFPLTFGGGTKVEIK | – | 1.04 fold | 1.04 fold
11 | C5A (XPA23) VH T58I (antibody, V domains shown) VH: EVQLLESGGGLVQPGGSLRLSCAASGFTFSKYFMFWVRQAPGKGLEWVSVISPSGGMIRYADSVKGRFTISRDNSKNTLYLQMNSLRAEDTAVYYCARVGYGGNSDYWGQGTLVTVSS VL: DIQMTQSPSSVSASVGDRLTIICRASQDINRWLAWYQQTPGNAPKLLIHSATSLQSGVPSRFSGSGSGTDFTLTINSLQPEDFATYYCQQADSFPLTFGGGTKVEIK | 0.95 fold | 0.95 fold | –
12 | C5A (XPA23) VH R59L (antibody, V domains shown) VH: EVQLLESGGGLVQPGGSLRLSCAASGFTFSKYFMFWVRQAPGKGLEWVSVISPSGGMTLYADSVKGRFTISRDNSKNTLYLQMNSLRAEDTAVYYCARVGYGGNSDYWGQGTLVTVSS VL: DIQMTQSPSSVSASVGDRLTIICRASQDINRWLAWYQQTPGNAPKLLIHSATSLQSGVPSRFSGSGSGTDFTLTINSLQPEDFATYYCQQADSFPLTFGGGTKVEIK | 0.08 fold | 0.08 fold | –
13 | C5A (XPA23) VH V99A (antibody, V domains shown) VH: EVQLLESGGGLVQPGGSLRLSCAASGFTFSKYFMFWVRQAPGKGLEWVSVISPSGGMTRYADSVKGRFTISRDNSKNTLYLQMNSLRAEDTAVYYCARAGYGGNSDYWGQGTLVTVSS VL: DIQMTQSPSSVSASVGDRLTIICRASQDINRWLAWYQQTPGNAPKLLIHSATSLQSGVPSRFSGSGSGTDFTLTINSLQPEDFATYYCQQADSFPLTFGGGTKVEIK | 0.03 fold | 0.03 fold | –
14 | C5A (XPA23) VH M57V (antibody, V domains shown) VH: EVQLLESGGGLVQPGGSLRLSCAASGFTFSKYFMFWVRQAPGKGLEWVSVISPSGGVTRYADSVKGRFTISRDNSKNTLYLQMNSLRAEDTAVYYCARVGYGGNSDYWGQGTLVTVSS VL: DIQMTQSPSSVSASVGDRLTIICRASQDINRWLAWYQQTPGNAPKLLIHSATSLQSGVPSRFSGSGSGTDFTLTINSLQPEDFATYYCQQADSFPLTFGGGTKVEIK | 0.03 fold | 0.03 fold | –
15 | C5A (XPA23) VH M57F (antibody, V domains shown) VH: EVQLLESGGGLVQPGGSLRLSCAASGFTFSKYFMFWVRQAPGKGLEWVSVISPSGGFTRYADSVKGRFTISRDNSKNTLYLQMNSLRAEDTAVYYCARVGYGGNSDYWGQGTLVTVSS VL: DIQMTQSPSSVSASVGDRLTIICRASQDINRWLAWYQQTPGNAPKLLIHSATSLQSGVPSRFSGSGSGTDFTLTINSLQPEDFATYYCQQADSFPLTFGGGTKVEIK | – | 1.03 fold | 1.03 fold
16 | C5A (XPA23) VH M57I (antibody, V domains shown) VH: EVQLLESGGGLVQPGGSLRLSCAASGFTFSKYFMFWVRQAPGKGLEWVSVISPSGGITRYADSVKGRFTISRDNSKNTLYLQMNSLRAEDTAVYYCARVGYGGNSDYWGQGTLVTVSS VL: DIQMTQSPSSVSASVGDRLTIICRASQDINRWLAWYQQTPGNAPKLLIHSATSLQSGVPSRFSGSGSGTDFTLTINSLQPEDFATYYCQQADSFPLTFGGGTKVEIK | 0.03 fold | 0.03 fold | –
17 | C5A (XPA23) VH T58P (antibody, V domains shown) VH: EVQLLESGGGLVQPGGSLRLSCAASGFTFSKYFMFWVRQAPGKGLEWVSVISPSGGMPRYADSVKGRFTISRDNSKNTLYLQMNSLRAEDTAVYYCARVGYGGNSDYWGQGTLVTVSS VL: DIQMTQSPSSVSASVGDRLTIICRASQDINRWLAWYQQTPGNAPKLLIHSATSLQSGVPSRFSGSGSGTDFTLTINSLQPEDFATYYCQQADSFPLTFGGGTKVEIK | 1.81 fold | 1.81 fold | –
18 | C5A (XPA23) VH V99F (antibody, V domains shown) VH: EVQLLESGGGLVQPGGSLRLSCAASGFTFSKYFMFWVRQAPGKGLEWVSVISPSGGMTRYADSVKGRFTISRDNSKNTLYLQMNSLRAEDTAVYYCARFGYGGNSDYWGQGTLVTVSS VL: DIQMTQSPSSVSASVGDRLTIICRASQDINRWLAWYQQTPGNAPKLLIHSATSLQSGVPSRFSGSGSGTDFTLTINSLQPEDFATYYCQQADSFPLTFGGGTKVEIK | – | 0.03 fold | 0.03 fold
19 | C5A (XPA23) VH T58L (antibody, V domains shown) VH: EVQLLESGGGLVQPGGSLRLSCAASGFTFSKYFMFWVRQAPGKGLEWVSVISPSGGMLRYADSVKGRFTISRDNSKNTLYLQMNSLRAEDTAVYYCARVGYGGNSDYWGQGTLVTVSS VL: DIQMTQSPSSVSASVGDRLTIICRASQDINRWLAWYQQTPGNAPKLLIHSATSLQSGVPSRFSGSGSGTDFTLTINSLQPEDFATYYCQQADSFPLTFGGGTKVEIK | 0.95 fold | 0.95 fold | –
20 | C5A (XPA23) VH M57L (antibody, V domains shown) VH: EVQLLESGGGLVQPGGSLRLSCAASGFTFSKYFMFWVRQAPGKGLEWVSVISPSGGLTRYADSVKGRFTISRDNSKNTLYLQMNSLRAEDTAVYYCARVGYGGNSDYWGQGTLVTVSS VL: DIQMTQSPSSVSASVGDRLTIICRASQDINRWLAWYQQTPGNAPKLLIHSATSLQSGVPSRFSGSGSGTDFTLTINSLQPEDFATYYCQQADSFPLTFGGGTKVEIK | 0.06 fold | 0.06 fold | –
